Measurements published in the RNAGym collection of RNA variant scans (doi:10.1093/nar/gkz1192).

B1: CPEB3 Ribozyme (parent)
chain: UAACAGGGGGCCACAGCAGAAGCGUUCACGUCGCAGCCCCUGUCAGAUUCUGGUGAAUCUGCGAAUUCUGCUGUAUAUCUC

Variants of: B1
Assay: self-cleavage, relative activity (ratio to wild type); higher = more cleavage; in vitro, sequencing
Method in brief: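 Relative activity was defined as the cleaved/total read fraction for a variant divided by the same fraction for the unmutated ribozyme. CPEB3 self-cleaving ribozyme libraries were made by rounds of error-prone PCR, barcoded, and transcribed in vitro with T7 RNA polymerase for 5 hours at 37°C, and cleavage ran through transcription plus a 15 min DNase I step before EDTA. Illumina sequencing of template-switched reverse transcripts gave the reads, and DNA sequencing mapped the barcodes. Averages come from three batches, using variants with at least 5 reads.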

Q: For C23A U76C, which self-cleavage is on record?
A: 0.21

Q: Which self-cleavage does the source give for C23G U26A here?
A: 0.1

Q: With C23G U26C as the variant, how does the self-cleavage read?
A: 0.25

Q: With G22U A45G as the variant, how does the self-cleavage read?
A: 0.22

Q: With G22C U72C as the variant, how does the self-cleavage read?
A: 0.2

Q: With A21U U60C as the variant, how does the self-cleavage read?
A: 0.2

Q: With A21U U60G as the variant, how does the self-cleavage read?
A: 0.17

Q: Which self-cleavage does the source give for A21U U60A here?
A: 0.3

Q: With G22A A35U as the variant, how does the self-cleavage read?
A: 0.19

Q: With G22A A35G as the variant, how does the self-cleavage read?
A: 0.68

Q: For G22U U72C, which self-cleavage is on record?
A: 0.3

Q: For G22U U72A, which self-cleavage is on record?
A: 0.15

Q: For G22C A75G, which self-cleavage is on record?
A: 0.13

Q: For G22C A75U, which self-cleavage is on record?
A: 0.24

Q: Which self-cleavage does the source give for C23U C29U here?
A: 0.21

Q: With C23G G63U as the variant, how does the self-cleavage read?
A: 0.32

Q: Which self-cleavage does the source give for A21U U69C here?
A: 0.26

Q: For C23A C34U, which self-cleavage is on record?
A: 0.22

Q: For C23U A56G, which self-cleavage is on record?
A: 0.31

Q: With C23U A56U as the variant, how does the self-cleavage read?
A: 0.15

Q: For C23G U60C, which self-cleavage is on record?
A: 0.07

Q: With C23G U60A as the variant, how does the self-cleavage read?
A: 0.19

Q: Which self-cleavage does the source give for C23U G30A here?
A: 0.12

Q: For G22A U67A, which self-cleavage is on record?
A: 0.32

Q: Which self-cleavage does the source give for G22A U67C here?
A: 0.09

Q: With C23A U58C as the variant, how does the self-cleavage read?
A: 0.56

Q: With C23A U58A as the variant, how does the self-cleavage read?
A: 0.18

Q: With C23G A57G as the variant, how does the self-cleavage read?
A: 0.16

Q: Which self-cleavage does the source give for G22C U74G here?
A: 0.19

Q: For G22A U31A, which self-cleavage is on record?
A: 0.34

Q: With C23G A56G as the variant, how does the self-cleavage read?
A: 0.23

Q: Which self-cleavage does the source give for C23G A56U here?
A: 0.4

Q: Which self-cleavage does the source give for A21U U43A here?
A: 0.5

Q: With A21U U43C as the variant, how does the self-cleavage read?
A: 0.26

Q: For C23A U78G, which self-cleavage is on record?
A: 0.08

Q: With C23A U78C as the variant, how does the self-cleavage read?
A: 0.12

Q: Which self-cleavage does the source give for C23A U78A here?
A: 0.21

Q: For A21U U31G, which self-cleavage is on record?
A: 0.13

Q: For A21U U31C, which self-cleavage is on record?
A: 0.3

Q: For A21U U31A, which self-cleavage is on record?
A: 0.13

Q: With C23U A47U as the variant, how does the self-cleavage read?
A: 0.2

Q: For C23U A47G, which self-cleavage is on record?
A: 0.18

Q: For G22U G61C, which self-cleavage is on record?
A: 0.14

Q: With C23G A65U as the variant, how does the self-cleavage read?
A: 0.22

Q: Which self-cleavage does the source give for G22A A77U here?
A: 0.1

Q: With G22U A56G as the variant, how does the self-cleavage read?
A: 0.2

Q: For G22U C59U, which self-cleavage is on record?
A: 0.16

Q: Which self-cleavage does the source give for G22U A64G here?
A: 0.36

Q: For C23G U25C, which self-cleavage is on record?
A: 0.28

Q: With G22U A35U as the variant, how does the self-cleavage read?
A: 0.09

Q: For G22U G46A, which self-cleavage is on record?
A: 0.17

Q: For G22A G63A, which self-cleavage is on record?
A: 0.27

Q: For G22U U76A, which self-cleavage is on record?
A: 0.33

Q: For A21U U54G, which self-cleavage is on record?
A: 0.26

Q: For A21U U54C, which self-cleavage is on record?
A: 0.29

Q: Which self-cleavage does the source give for A21U U54A here?
A: 0.29

Q: Which self-cleavage does the source give for C23A U25C here?
A: 0.36

Q: Which self-cleavage does the source give for C23A U25A here?
A: 0.27

Q: With C23G U54G as the variant, how does the self-cleavage read?
A: 0.26

Q: With C23G U54A as the variant, how does the self-cleavage read?
A: 0.26

Q: With C23G U54C as the variant, how does the self-cleavage read?
A: 0.28

Q: For C23G A35U, which self-cleavage is on record?
A: 0.19

Q: For G22A U51C, which self-cleavage is on record?
A: 0.2

Q: Which self-cleavage does the source give for G22A U51G here?
A: 0.17

Q: Which self-cleavage does the source give for G22C A65G here?
A: 0.32

Q: For C23A C79A, which self-cleavage is on record?
A: 0.26

Q: Which self-cleavage does the source give for G22C G55U here?
A: 0.22

Q: With C23A U31C as the variant, how does the self-cleavage read?
A: 0.23

Q: For C23U C27U, which self-cleavage is on record?
A: 0.31

Q: With C23U G61C as the variant, how does the self-cleavage read?
A: 0.11

Q: Which self-cleavage does the source give for C23U G61A here?
A: 0.25

Q: Which self-cleavage does the source give for C23U A28G here?
A: 0.26

Q: Which self-cleavage does the source give for C23U A28C here?
A: 0.43

Q: With C23U A28U as the variant, how does the self-cleavage read?
A: 0.23

Q: For G22C C62U, which self-cleavage is on record?
A: 0.16

Q: For G22C C29U, which self-cleavage is on record?
A: 0.1

Q: For A21U G33A, which self-cleavage is on record?
A: 0.09

Q: With A21U G22A as the variant, how does the self-cleavage read?
A: 0.29

Q: For G22U U25C, which self-cleavage is on record?
A: 0.2

Q: Which self-cleavage does the source give for C23U G52A here?
A: 0.57

Q: With G22C C37G as the variant, how does the self-cleavage read?
A: 0.09

Q: With A21U G24A as the variant, how does the self-cleavage read?
A: 0.33

Q: Which self-cleavage does the source give for C23A A64G here?
A: 0.53

Q: For C23A U74A, which self-cleavage is on record?
A: 0.23
